Experiments:
[1] = target: T1, full-length human recombinant IGFBP-4
T1 chain: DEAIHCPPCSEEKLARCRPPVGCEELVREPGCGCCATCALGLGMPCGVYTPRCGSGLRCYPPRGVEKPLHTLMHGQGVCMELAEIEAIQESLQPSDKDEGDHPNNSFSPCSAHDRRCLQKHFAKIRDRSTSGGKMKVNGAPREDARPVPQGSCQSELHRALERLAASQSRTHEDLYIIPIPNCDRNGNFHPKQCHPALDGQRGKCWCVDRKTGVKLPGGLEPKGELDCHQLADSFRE

[2] = target: full-length human recombinant IGFBP-5
Sequence of full-length human recombinant IGFBP-5 (chain, as listed by the source): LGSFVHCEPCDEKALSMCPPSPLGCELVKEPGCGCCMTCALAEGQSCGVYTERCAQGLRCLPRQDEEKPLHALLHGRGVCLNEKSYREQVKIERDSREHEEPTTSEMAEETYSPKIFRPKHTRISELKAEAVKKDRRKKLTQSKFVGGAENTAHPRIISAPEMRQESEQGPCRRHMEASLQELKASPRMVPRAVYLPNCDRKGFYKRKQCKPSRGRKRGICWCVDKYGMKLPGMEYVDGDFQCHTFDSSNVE

Protein	proteolytic cleavage of IGFBP-4, Western blotting [1]	proteolytic cleavage of IGFBP-5, SDS-PAGE with Coomassie staining [2]
atherosclerotic form of PAPP-A (protein) EARGATEEPSPPSRALYFSGRGEQLRLRADLELPRDAFTLQVWLRAEGGQRSPAVITGLYDKCSYISRDRGWVVGIHTISDQDNKDPRYFFSLKTDRARQVTTINAHRSYLPGQWVYLAATYDGQFMKLYVNGAQVATSGEQVGGIFSPLTQKCKVLMLGGSALNHNYRGYIEHFSLWKVARTQREILSDMETHGAHTALPQLLLQENWDNVKHAWSPMKDGSSPKVEFSNAHGFLLDTSLEPPLCGQTLCDNTEVIASYNQLSSFRQPKVVRYRVVNLYEDDHKNPTVTREQVDFQHHQLAEAFKQYNISWELDVLEVSNSSLRRRLILANCDISKIGDENCDPECNHTLTGHDGGDCRHLRHPAFVKKQHNGVCDMDCNYERFNFDGGECCDPEITNVTQTCFDPDSPHRAYLDVNELKNILKLDGSTHLNIFFAKSSEEELAGVATWPWDKEALMHLGGIVLNPSFYGMPGHTHTMIHEIGHSLGLYHVFRGISEIQSCSDPCMETEPSFETGDLCNDTNPAPKHKSCGDPGPGNDTCGFHSFFNTPYNNFMSYADDDCTDSFTPNQVARMHCYLDLVYQGWQPSRKPAPVALAPQVLGHTTDSVTLEWFPPIDGHFFERELGSACHLCLEGRILVQYASNASSPMPCSPSGHWSPREAEGHPDVEQPCKSSVRTWSPNSAVNPHTVPPACPEPQGCYLELEFLYPLVPESLTIWVTFVSTDWDSSGAVNDIKLLAVSGKNISLGPQNVFCDVPLTIRLWDVGEEVYGIQIYTLDEHLEIDAAMLTSTADTPLCLQCKPLKYKVVRDPPLQMDVASILHLNRKFVDMDLNLGSVYQYWVITISGTEESEPSPAVTYIHGSGYCGDGIIQKDQGEQCDDMNKINGDGCSLFCRQEVSFNCIDEPSRCYFHDGDGVCEEFEQKTSIKDCGVYTPQGFLDQWASNASVSHQDQQCPGWVIIGQPAASQVCRTKVIDLSEGISQHAWYPCTISYPYSQLAQTTFWLRAYFSQPMVAAAVIVHLVTDGTYYGDQKQETISVQLLDTKDQSHDLGLHVLSCRNNPLIIPVVHDLSQPFYHSQAVRVSFSSPLVAISGVALRSFDNFDPVTLSSCQRGETYSPAEQSCVHFACEKTDCPELAVENASLNCSSSDRYHGAQCTVSCRTGYVLQIRRDDELIKSQTGPSVTVTCTEGKWNKQVACEPVDCSIPDHHQVYAASFSCPEGTTFGSQCSFQCRHPAQLKGNNSLLTCMEDGLWSFPEALCELMCLAPPPVPNADLQTARCRENKHKVGSFCKYKCKPGYHVPGSSRKSKKRAFKTQCTQDGSWQEGACVPVTCDPPPPKFHGLYQCTNGFQFNSECRIKCEDSDASQGLGSNVIHCRKDGTWNGSFHVCQEMQGQCSVPNELNSNLKLQCPDGYAIGSECATSCLDHNSESIILPMNVTVRDIPHWLNPTRVERVVCTAGLKWYPHPALIHCVKGCEPFMGDNYCDAINNRAFCNYDGGDCCTSTVKTKKVTPFPMSCDLQGDCACRDPQAQEHSRKDLRGYSHG	atherosclerotic form of PAPP-A was shown to cleave IGFBP-4 with the same efficiency as recombinant PAPP-A	
human recombinant PAPP-A (protein) EARGATEEPSPPSRALYFSGRGEQLRLRADLELPRDAFTLQVWLRAEGGQRSPAVITGLYDKCSYISRDRGWVVGIHTISDQDNKDPRYFFSLKTDRARQVTTINAHRSYLPGQWVYLAATYDGQFMKLYVNGAQVATSGEQVGGIFSPLTQKCKVLMLGGSALNHNYRGYIEHFSLWKVARTQREILSDMETHGAHTALPQLLLQENWDNVKHAWSPMKDGSSPKVEFSNAHGFLLDTSLEPPLCGQTLCDNTEVIASYNQLSSFRQPKVVRYRVVNLYEDDHKNPTVTREQVDFQHHQLAEAFKQYNISWELDVLEVSNSSLRRRLILANCDISKIGDENCDPECNHTLTGHDGGDCRHLRHPAFVKKQHNGVCDMDCNYERFNFDGGECCDPEITNVTQTCFDPDSPHRAYLDVNELKNILKLDGSTHLNIFFAKSSEEELAGVATWPWDKEALMHLGGIVLNPSFYGMPGHTHTMIHEIGHSLGLYHVFRGISEIQSCSDPCMETEPSFETGDLCNDTNPAPKHKSCGDPGPGNDTCGFHSFFNTPYNNFMSYADDDCTDSFTPNQVARMHCYLDLVYQGWQPSRKPAPVALAPQVLGHTTDSVTLEWFPPIDGHFFERELGSACHLCLEGRILVQYASNASSPMPCSPSGHWSPREAEGHPDVEQPCKSSVRTWSPNSAVNPHTVPPACPEPQGCYLELEFLYPLVPESLTIWVTFVSTDWDSSGAVNDIKLLAVSGKNISLGPQNVFCDVPLTIRLWDVGEEVYGIQIYTLDEHLEIDAAMLTSTADTPLCLQCKPLKYKVVRDPPLQMDVASILHLNRKFVDMDLNLGSVYQYWVITISGTEESEPSPAVTYIHGSGYCGDGIIQKDQGEQCDDMNKINGDGCSLFCRQEVSFNCIDEPSRCYFHDGDGVCEEFEQKTSIKDCGVYTPQGFLDQWASNASVSHQDQQCPGWVIIGQPAASQVCRTKVIDLSEGISQHAWYPCTISYPYSQLAQTTFWLRAYFSQPMVAAAVIVHLVTDGTYYGDQKQETISVQLLDTKDQSHDLGLHVLSCRNNPLIIPVVHDLSQPFYHSQAVRVSFSSPLVAISGVALRSFDNFDPVTLSSCQRGETYSPAEQSCVHFACEKTDCPELAVENASLNCSSSDRYHGAQCTVSCRTGYVLQIRRDDELIKSQTGPSVTVTCTEGKWNKQVACEPVDCSIPDHHQVYAASFSCPEGTTFGSQCSFQCRHPAQLKGNNSLLTCMEDGLWSFPEALCELMCLAPPPVPNADLQTARCRENKHKVGSFCKYKCKPGYHVPGSSRKSKKRAFKTQCTQDGSWQEGACVPVTCDPPPPKFHGLYQCTNGFQFNSECRIKCEDSDASQGLGSNVIHCRKDGTWNGSFHVCQEMQGQCSVPNELNSNLKLQCPDGYAIGSECATSCLDHNSESIILPMNVTVRDIPHWLNPTRVERVVCTAGLKWYPHPALIHCVKGCEPFMGDNYCDAINNRAFCNYDGGDCCTSTVKTKKVTPFPMSCDLQGDCACRDPQAQEHSRKDLRGYSHG	Western blotting detection of proteolytic fragments of IGFBP-4 demonstrating PAPP-A protease activity	PAPP-A-dependent cleavage of IGFBP-5 determined by sodium dodecyl sulphate polyacrylamide gel electrophoresis

Reference: patent US20140017714
